Source: PMC6905856, “Movement of accessible plasma membrane cholesterol by the GRAMD1 lipid transfer protein complex” (eLife, 2019)

Target: the molecule itself
Assay: SEC; purified EGFP fusion of the luminal helix region alone on Superdex 200 increase 10/300 GL; 20 mM HEPES, 300 mM NaCl, 10% glycerol, 0.5 mM TCEP, pH 7.5; self-association judged from the elution volume

B1: EGFP-tagged luminal helix region of wild-type GRAMD1b (EGFP–helix: EGFP–GRAMD1b 674–718) (domain or fragment, human, UniProt Q3KR37-1 674-718, looked up)
chain: SQTEWAQLLESQQKYHDTELQKWREIIKSSVMLLDQMKDSLINLQ
notes: GRAMD1b, human, luminal helix region, residues 674-718; Predicted molecular weight ~35 kDa; also called EGFP-linker-GRAMD1b luminal helix; EGFP–(GGGS)3–GRAMD1b luminal helix (674–718); source: E. coli BL21-DE3 Rosetta, purified (Co-TALON or Ni-NTA, gel filtration on Superdex 200 increase); not shown: EGFP with (GGGS)3 linker, N-terminal, kept
  binding result: binds
